The values that follow come from US20210040181A1 (Bristol-Myers Squibb, published 2021).

The term IC50 denotes the concentration that gives 50% inhibition.

One assay concerns the target EGFR 525-Fc (human) (UniProt P00533). The assay can be described thus: direct binding ELISA, single point; clone captured by anti-His, 50 nM receptor-Fc, anti-human Fc HRP. Background: In an ELISA, binding on a coated surface is turned into a signal by an enzyme label.
Assay [1] has as its target EGFR-Fc (R&D Systems), ectodomain of human EGFR as a Fc fusion (human) (UniProt P00533). The assay is described as above.
Assay [2] addresses T1, EGFR-Fc (R&D Systems), ectodomain of human EGFR as a Fc fusion (human, UniProt P00533 25-645).
T1 construct: extracellular domain; Bought from R&D Systems; also called EGFR-FL-Fc; full length EGFR Fc fusion protein; not shown: Fc of the purchased fusion
The assay is described as above. As for the experimental part: Proteins encoded by independent clones were analyzed for binding to the full length ectodomain of EGFR as well as a truncated version containing the first 525 amino acids (EGFR 525) of the EGFR ectodomain in single point direct binding assays. Anti-His antibodies were used to capture protein clones in an oriented fashion followed by incubation with full length EGFR or EGFR 525 Fc fusion proteins. Bound receptor-Fcs were detected via anti-human Fc HRP conjugate with a chromogenic readout (i.e. A450). […] The SGE control is the ¹⁰FN3 domain as shown in SEQ ID NO: 1 with the integrin binding domain (RGD) substituted with amino acids SGE.
The protein populations resulting from the above selections are expressed in E. coli as His6 tagged proteins. The direct binding ELISA relies on the oriented capture of His6 tagged clones onto anti-His monoclonal antibody plates (EMD Biosciences, San Diego, Calif.) blocked with casein block buffer (Pierce, Rockford, Ill.) for 1-2 hrs. Typically a 1:50 dilution of HTPP material (0.2-2 ug) is captured for 1 hr, followed by incubation with 50 nM of the EGFR-Fc targets. Bound EGFR-Fcs are detected by incubation with anti-human HRP. Bound HRP conjugate is detected using the colorimetric substrate TMB (BD Biosciences, San Jose, Calif.) following the manufacturer's instructions.

Assay [3] has as its target T2, EGFR on the surface of human A431 cells (human, UniProt P00533 25-1210).
T2 construct: whole, on cells; also called HER-1; EGF receptor on cells
The assay can be described thus: competition with 10 nM Eu-EGF on A431 cells, time resolved fluorescence; Midscale preparation. The method, then:
(§1) Human epithelial carcinoma cells, clone A431, which express large numbers of EGFRs on the cell surface, are plated into 96 well tissue culture plates and allowed to adhere for 48 hours. The cells are washed with serum free media and dilutions of the selected clones are incubated with the cells for 15 minutes, 37° C. in a humidified incubator in 5% CO₂. This incubation allows binding of the clone to the EGFR on the cell surface.

Assay [4] deals with T2, EGFR on the surface of human A431 cells. The assay can be described thus: cell-based competitive ligand binding assay on A431 cells, competitor Eu-EGF, time-resolved fluorescence (RFUs); parameter C of the four-parameter fit y = ((A - D)/(1 + (x/C)^B)) + D, x axis in nM; the legend calls C the IC50 but prints 258.258. The method, then:
as §1

“SGE control (10FN3 domain of SEQ ID NO: 1 with RGD substituted with SGE) (designed binder)”: the A450 with EGFR 525-Fc (human) turned out to be 0.139 A450; in assay [1], 0.143 A450.

B1: 867F10 (designed binder)
chain: VSDVPRDLEVVAATPTSLLISWHNTYKDYRYYRITYGETGGNSPVQEFTVPHMAYNTATISGLKPGVDYTITVYAVTVTMQALLYSIPISINYRT
notes: 10Fn3-based clone expressed in E. coli as His6 tagged protein; not shown: His6 tag
On to B1, for which the A450 is 2.78 A450 in assay [2] and 2.32 A450 with EGFR 525-Fc (human).

B2: 679B10 (designed binder)
chain: VSDVPRDLEVVAATPTSLLISWRLTAPLGRYYRITYGETGGNSPVQEFTVPDIPFTATISGLKPGVDYTITVYAVTLSDSAHGGLRDVPISINYRT
notes: as for B1
Turning to B2, the results for the A450 (in assay [2]; with EGFR 525-Fc (human)) were 1.38 A450 and 1.74 A450, respectively.

B3: 867A03 (designed binder)
chain: VSDVPRDLEVVAATPTSLLISWTYRHYPERYYRITYGETGGNSPVQEFTVPDPDSTATISGLKPGVDYTITVYAVTYNHSSTPISINYRT
notes: as for B1
Turning to B3, the A450 in assay [2] was found to be 2.3 A450; with EGFR 525-Fc (human) it was 1.85 A450.

B4: 867A05 (designed binder)
chain: VSDVPRDLEVVAATPTSLLISWYYRKYPGRYYRITYGETGGNSPVQEFTVPDEHTTATISGLKPGVDYTITVYAVTYDSPSQPISINYRT
notes: as for B1
For the molecule B4, the A450 in assay [2] stood at 1.87 A450; with EGFR 525-Fc (human) it was 1.61 A450.

B5: 867C04 (designed binder)
chain: VSDVPRDLEVVAATPTSLLISWESKYVNYRYYRITYGETGGNSPVQEFTVPHLMTATISGLKPGVDYTITVYAVTVGGDHMYSSLPISINYRT
notes: as for B1
On to B5, for which the A450 in assay [2] came out at 1.95 A450; with EGFR 525-Fc (human), 1.57 A450.

B6: 679A01 (designed binder)
chain: VSDVPRDLEVVAATPTSLLISWARYAGSDRYYRITYGETGGNSPVQEFTVPDVPFTATISGLKPGVDYTITVYAVTMGHAPTVDIHWTPSPISINYRT
notes: as for B1
As for B6, the A450 in assay [2] was 1.57 A450; with EGFR 525-Fc (human) it was 1.53 A450.

B7: 867E02 (designed binder)
chain: VSDVPRDLEVVAATPTSLLISWIRRAKPGRYYRITYGETGGNSPVQEFTVPDVPWTATISGLKPGVDYTITVYAVTLDGVRRVGYLDHPISINYRT
notes: as for B1
With B7, the figures for the A450 (in assay [2]; in the assay with EGFR 525-Fc (human)) were 1.42 A450 and 1.43 A450, respectively.

B8: 867B08 (designed binder)
chain: VSDVPRDLEVVAATPTSLLISWSGSYKSYRYYRITYGETGGNSPVQEFTVPHYDHATATISGLKPGVDYTITVYAVTVDYTAVQVSYPISINYRT
notes: as for B1
In the case of B8, the A450 in assay [2] amounted to 2.61 A450; in the assay with EGFR 525-Fc (human), 2.49 A450.

B9: 867B10 (designed binder)
chain: VSDVPRDLEVVAATPTSLLISWKSVYVDYRYYRITYGETGGNSPVQEFTVPHSNLTATISGLKPGVDYTITVYAVTVYESYVANDSPISINYRT
notes: as for B1
Take B9: the values for the A450 (in assay [2]; with EGFR 525-Fc (human)) were 2.96 A450 and 2.55 A450, respectively.

B10: 679F03 (designed binder)
chain: VSDVPRDLEVVAATPTSLLISWYHYYSGSQRYYRITYGETGGNSPVQEFTVPHEVYTATISGLKPGVDYTITVYAVTDYAYKEYEEYPISINYRT
notes: as for B1
As for B10, the A450 in assay [2] is 2.37 A450; in the assay with EGFR 525-Fc (human), 2.45 A450. Besides, the IC50 in assay [3] worked out at 26.8 nM.

B11: 679C10 (designed binder)
chain: VSDVPRDLEVVAATPTSLLISWSRYAPGGRYYRITYGETGGNSPVQEFTVPDVPWTATISGLKPGVDYTITVYAVTLSNYEYLARNPISINYRT
notes: as for B1
For the molecule B11, the figures for the A450 (in assay [2]; with EGFR 525-Fc (human)) were 0.467 A450 and 0.803 A450, respectively.

B12: 867C07 (designed binder)
chain: VSDVPRDLEVVAATPTSLLISWHSNYVDYRYYRITYGETGGNSPVQEFTVPHISDITATISGLKPGVDYTITVYAVTVEDMVRESYPPISINYRT
notes: as for B1
As for B12, the A450 in assay [2] stood at 2.43 A450; with EGFR 525-Fc (human) it was 2.18 A450.

B13: 679B01 (designed binder)
chain: VSDVPRDLEVVAATPTSLLISWLLLGAPCRYYRITYGETGGNSPVQEFTVPWMGLTATISGLKPGVDYTITVYAVTSERAPCVKVWRCPISINYRT
notes: as for B1
B13: the A450 in assay [2] was found to be 0.213 A450; in the assay with EGFR 525-Fc (human), 0.539 A450.

B14: 679B09 (designed binder)
chain: VSDVPRDLEVVAATPTSLLISWMRWYAPRRYYRITYGETGGNSPVQEFTVPFWQGTATISGLKPGVDYTITVYAVTRGQSGLGMPISINYRT
notes: as for B1
Take B14: the A450 in assay [2] is 0.455 A450; with EGFR 525-Fc (human), 0.375 A450.

B15: 679A05 (designed binder)
chain: VSDVPRDLEVVAATPTSLLISWARYAECGRYYRITYGETGGNSPVQEFTVPDVPWTATISGLKPGVDYTITVYAVTLGKPPLPGWVSGLDPISINYRT
notes: as for B1
For the molecule B15, the A450 in assay [2] stood at 1.43 A450; in the assay with EGFR 525-Fc (human), 1.72 A450.

B16: 867E05 (designed binder)
chain: VSDVPRDLEVVAATPTSLLISWNRHAMASRYYRITYGETGGNSPVQEFTVPDVPFTATISGLKPGVDYTITVYAVTMSDKAMDMRTPSIGPISINYRT
notes: as for B1
For B16, the A450 in assay [2] was 1.72 A450; with EGFR 525-Fc (human), 1.68 A450.

B17: 867B09 (designed binder)
chain: VSDVPRDLEVVAATPTSLLISWYLSHSYMRYYRITYGETGGNSPVQEFTVPVIHYTATISGLKPGVDYTITVYAVTSDKISVTVSGPISINYRT
notes: as for B1
For B17, the values for the A450 (in assay [2]; with EGFR 525-Fc (human)) were 2.77 A450 and 2.41 A450, respectively.

B18: 867H08 (designed binder)
chain: VSDVPRDLEVVAATPTSLLISWLRVPAYDRYYRITYGETGGNSPVQEFTVPDVPWTATISGLKPGVDYTITVYAVTLDESDMRVGVPISINYRT
notes: as for B1
Turning to B18, the A450 in assay [2] is 1.9 A450; with EGFR 525-Fc (human), 1.79 A450.

B19: 867A01 (designed binder)
chain: VSDVPRDLEVVAATPTSLLISWQQQHTNYRYYRITYGETGGNSPVQEFTVPGRASTATISGLKPGVDYTITVYAVTEHPYYGDPPISINYRT
notes: as for B1
Take B19: the A450 in assay [2] came to 1.4 A450; in the assay with EGFR 525-Fc (human) it was 0.137 A450. Also, the IC50 in assay [4] is 258 nM.

B20: 679A10 (designed binder)
chain: VSDVPRDLEVVAATPTSLLISWDRMLSFLRYYRITYGETGGNSPVQEFTVPLIYPTATISGLKPGVDYTITVYAVTVQLLDQCLRIHGPISINYRT
notes: as for B1
In the case of B20, the A450 in assay [2] amounted to 0.787 A450; with EGFR 525-Fc (human), 0.925 A450.

B21: 679G06 (designed binder)
chain: VSDVPRDLEVVAATPTSLLISWYSDYYDNRYYRITYGETGGNSPVQEFTVPRYMMTATISGLKPGVDYTITVYAVTYSYHDPNPMMPISINYRT
notes: as for B1
Take B21: the A450 in assay [2] was 2.1 A450; with EGFR 525-Fc (human), 0.128 A450.
